Experimental data taken from patent US20210238260A1.

Experiments:
[1] = target: Antithrombin III (plasma purified human AT-III), in complex with unfractionated full-length heparin (human) (UniProt P01008); assay: inhibition of FIXa by AT-III/UFH, residual activity on Mesyl-D-CHG-Gly-Arg-AMC
[2] = target: plasma purified human AT-III (antithrombin III) in complex with unfractionated heparin (human) (UniProt P01008); assay: residual FIXa activity on Mesyl-D-CHG-Gly-Arg-AMC after timed incubation with AT-III/UFH (0-500 nM AT-III, 1 uM UFH); kapp from K0.5

| kapp (second-order rate constant for inhibition) [1] [M⁻¹ s⁻¹] | kapp (apparent second-order rate constant for inhibition) [2] [M⁻¹ s⁻¹] | Substance |
| --- | --- | --- |
| 47000 |  | FIXa K293A/R338A/R403A (from UniProt P00740 47-191; P00740 227-461) (enzyme) |
|  | 5100 | FIXa-R318Y/R338E/T343R/N346D/R403E/E410N (from UniProt P00740 47-191; P00740 227-461) (enzyme) |
| 110000 |  | FIXa R403E (from UniProt P00740 47-191; P00740 227-461) (enzyme) |
|  | 1100 | FIXa-K228N/K247N/N249S/R318Y/R338E/R403E/E410N (from UniProt P00740 47-191; P00740 227-461) (enzyme) |
| 16000 |  | FIXa R318E (from UniProt P00740 47-191; P00740 227-461) (enzyme) |
| 270000 |  | FIXa R338E (from UniProt P00740 47-191; P00740 227-461) (enzyme) |
|  | 7300 | FIXa-Y155F/K247N/N249S/R318Y/R403E/E410N (from UniProt P00740 47-191; P00740 227-461) (enzyme) |
| 31000 |  | FIXa K293E/R338E/R403E (from UniProt P00740 47-191; P00740 227-461) (enzyme) |
| 690000 |  | FIXa R318A (from UniProt P00740 47-191; P00740 227-461) (enzyme) |
| 2e+06 |  | FIXa D203N/F205T/E410N (from UniProt P00740 47-191; P00740 227-461) (enzyme) |
| 810000 |  | FIXa D203N/F205T (from UniProt P00740 47-191; P00740 227-461) (enzyme) |
| 360000 |  | FIXa D203N/F205T/R338E (from UniProt P00740 47-191; P00740 227-461) (enzyme) |
| 840000 |  | FIXa R338A/R403A (from UniProt P00740 47-191; P00740 227-461) (enzyme) |
|  | 8600 | FIXa-Y155F/R318Y/R338E/T343R/R403E/E410N (from UniProt P00740 47-191; P00740 227-461) (enzyme) |
|  | 1.7e+06 | FIXa-D104N/K106S/K247N/N249S/N260S (from UniProt P00740 47-191; P00740 227-461) (enzyme) |
|  | 810 | FIXa-Y155F/K247N/N249S/R318Y/R338E/R403E (from UniProt P00740 47-191; P00740 227-461) (enzyme) |
|  | 1600 | FIXa-Y155F/R318Y/R338E/N346D/R403E/E410N (from UniProt P00740 47-191; P00740 227-461) (enzyme) |
| 2000 |  | FIXa D203N/F205T/R338E/R403E (from UniProt P00740 47-191; P00740 227-461) (enzyme) |
|  | 1100 | FIXa-Y155F/K228N/K247N/N249S/R318Y/R338E/R403E/E410N (from UniProt P00740 47-191; P00740 227-461) (enzyme) |
| 1.6e+07 |  | FIXa T148A (from UniProt P00740 47-191; P00740 227-461) (enzyme) |

| kapp (second-order rate constant for inhibition) [1] [M⁻¹ s⁻¹] | kapp (apparent second-order rate constant for inhibition) [2] [M⁻¹ s⁻¹] | Substance |
| --- | --- | --- |
|  | 2100 | FIXa-D104N/K106S/N260S/R318Y/R338E/R403E/E410N (from UniProt P00740 47-191; P00740 227-461) (enzyme) |
| 7e+06 |  | FIXa D104N/K106S/N260S (from UniProt P00740 47-191; P00740 227-461) (enzyme) |
| 81000 |  | FIXa K293A/R403A (from UniProt P00740 47-191; P00740 227-461) (enzyme) |
| 68000 |  | FIXa R338E/R403E (from UniProt P00740 47-191; P00740 227-461) (enzyme) |
|  | 2900 | FIXa-R318Y/R338E/R403E/E410N/T412V (from UniProt P00740 47-191; P00740 227-461) (enzyme) |
| 1.2e+06 |  | FIXa K228N/R318Y (from UniProt P00740 47-191; P00740 227-461) (enzyme) |
|  | 2800 | FIXa-R318Y/R338E/N346Y/R403E/E410N (from UniProt P00740 47-191; P00740 227-461) (enzyme) |
|  | 2700 | FIXa-K247N/N249S/R318Y/R403E/E410N (from UniProt P00740 47-191; P00740 227-461) (enzyme) |
|  | 42000 | FIXa-Y155F/K247N/N249S/R338E/R403E/E410N (from UniProt P00740 47-191; P00740 227-461) (enzyme) |
| 61000 |  | FIXa D203N/F205T/R318Y (from UniProt P00740 47-191; P00740 227-461) (enzyme) |
|  | 430 | FIXa-Y155F/K247N/N249S/N260S/R318Y/R338E/R403E/E410N (from UniProt P00740 47-191; P00740 227-461) (enzyme) |
| 1000 |  | FIXa Y155F/R318Y/R338E/R403E (from UniProt P00740 47-191; P00740 227-461) (enzyme) |
|  | 1.3e+06 | FIXa-T343R/N346D (from UniProt P00740 47-191; P00740 227-461) (enzyme) |
| 1.2e+06 |  | FIXa K293E (from UniProt P00740 47-191; P00740 227-461) (enzyme) |
| 17000 |  | FIXa R318A/R403A (from UniProt P00740 47-191; P00740 227-461) (enzyme) |
|  | 720000 | FIXa-R318Y/R338E/E410S (from UniProt P00740 47-191; P00740 227-461) (enzyme) |
| 2.7e+06 |  | FIXa D85N/D203N/F205T (from UniProt P00740 47-191; P00740 227-461) (enzyme) |
|  | 310 | FIXa-K247N/N249S/R318Y/R338E/R403E (from UniProt P00740 47-191; P00740 227-461) (enzyme) |
| 280000 |  | FIXa R318Y/R338E/E410N (from UniProt P00740 47-191; P00740 227-461) (enzyme) |
|  | 9100 | FIXa-D104N/K106S/R318Y/R338E/T343R/R403E/E410N (from UniProt P00740 47-191; P00740 227-461) (enzyme) |

| kapp (second-order rate constant for inhibition) [1] [M⁻¹ s⁻¹] | kapp (apparent second-order rate constant for inhibition) [2] [M⁻¹ s⁻¹] | Substance |
| --- | --- | --- |
| 1.6e+07 |  | BeneFIX Coagulation FIX (T148A), activated (FIXa) (from UniProt P00740 47-191; P00740 227-461) (enzyme) |
| 2.4e+07 |  | Catalyst Biosciences WT FIXa (from UniProt P00740 47-191; P00740 227-461) (enzyme) |
| 42000 |  | FIXa K228N/R338E/R403E (from UniProt P00740 47-191; P00740 227-461) (enzyme) |
| 1.1e+06 |  | FIXa D203N/F205T/K228N (from UniProt P00740 47-191; P00740 227-461) (enzyme) |
| 1200 |  | FIXa R318Y/R338E/R403E (from UniProt P00740 47-191; P00740 227-461) (enzyme) |
|  | 11000 | FIXa-R318Y/R338E/T343R/N346Y/R403E/E410N (from UniProt P00740 47-191; P00740 227-461) (enzyme) |
| 860000 |  | FIXa D203N/F205T/R338A (from UniProt P00740 47-191; P00740 227-461) (enzyme) |
| 32000 |  | FIXa Y155F/R338E/R403E/E410N (from UniProt P00740 47-191; P00740 227-461) (enzyme) |
| 1.4e+06 |  | FIXa R403A (from UniProt P00740 47-191; P00740 227-461) (enzyme) |
| 230000 |  | FIXa R312Y (from UniProt P00740 47-191; P00740 227-461) (enzyme) |
|  | 21000 | FIXa-K247N/N249S/R338E/R403E/E410N (from UniProt P00740 47-191; P00740 227-461) (enzyme) |
|  | 32000 | FIXa-R318Y/R338E/T343R/R403E/E410N (from UniProt P00740 47-191; P00740 227-461) (enzyme) |
| 4.8e+06 |  | FIXa R403E/E410N (from UniProt P00740 47-191; P00740 227-461) (enzyme) |
|  | 4400 | FIXa-N260S/R318Y/R338E/R403E/E410N (from UniProt P00740 47-191; P00740 227-461) (enzyme) |
| 640000 |  | FIXa R318Y (from UniProt P00740 47-191; P00740 227-461) (enzyme) |
| 210000 |  | FIXa D104N/K106S/R318Y/R338E/E410N (from UniProt P00740 47-191; P00740 227-461) (enzyme) |
| 1.1e+06 |  | FIXa R318Y/E410N (from UniProt P00740 47-191; P00740 227-461) (enzyme) |
| 130000 |  | FIXa R338E/R403E/E410N (from UniProt P00740 47-191; P00740 227-461) (enzyme) |
| 6.3e+06 |  | FIXa R338E/E410N (from UniProt P00740 47-191; P00740 227-461) (enzyme) |
| 1.1e+06 |  | FIXa N260S (from UniProt P00740 47-191; P00740 227-461) (enzyme) |
